From patent US20100209938A1

Assays:
[1] = target: α4YFP nAChR subunit (mouse) (UniProt O70174); test: pixel-by-pixel sensitized emission FRET (NFRET), whole-cell ROI, N2a cells
[2] = target: α4YFP nAChR subunit (mouse) (UniProt O70174); test: pixel-by-pixel sensitized emission FRET, Gaussian fit of the NFRET distribution, N2a cells

Chain of α4YFP nAChR subunit (mouse) (O70174 31-629): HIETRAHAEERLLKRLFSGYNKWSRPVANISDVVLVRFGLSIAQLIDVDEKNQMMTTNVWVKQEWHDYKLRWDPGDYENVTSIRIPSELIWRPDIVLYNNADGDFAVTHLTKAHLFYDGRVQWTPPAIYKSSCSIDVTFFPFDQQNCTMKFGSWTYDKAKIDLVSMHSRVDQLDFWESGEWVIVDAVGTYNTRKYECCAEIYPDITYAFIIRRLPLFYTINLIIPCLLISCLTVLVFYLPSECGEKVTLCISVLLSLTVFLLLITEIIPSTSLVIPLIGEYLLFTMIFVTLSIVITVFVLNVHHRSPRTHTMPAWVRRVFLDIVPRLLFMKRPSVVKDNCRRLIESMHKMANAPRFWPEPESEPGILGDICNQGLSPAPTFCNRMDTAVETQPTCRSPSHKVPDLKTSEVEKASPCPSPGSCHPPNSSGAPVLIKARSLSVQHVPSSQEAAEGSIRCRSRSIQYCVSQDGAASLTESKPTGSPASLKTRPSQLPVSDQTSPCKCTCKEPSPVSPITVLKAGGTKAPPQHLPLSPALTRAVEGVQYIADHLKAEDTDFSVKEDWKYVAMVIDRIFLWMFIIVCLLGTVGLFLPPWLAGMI
Chain of β2CFP nAChR subunit (Q9ERK7 26-501): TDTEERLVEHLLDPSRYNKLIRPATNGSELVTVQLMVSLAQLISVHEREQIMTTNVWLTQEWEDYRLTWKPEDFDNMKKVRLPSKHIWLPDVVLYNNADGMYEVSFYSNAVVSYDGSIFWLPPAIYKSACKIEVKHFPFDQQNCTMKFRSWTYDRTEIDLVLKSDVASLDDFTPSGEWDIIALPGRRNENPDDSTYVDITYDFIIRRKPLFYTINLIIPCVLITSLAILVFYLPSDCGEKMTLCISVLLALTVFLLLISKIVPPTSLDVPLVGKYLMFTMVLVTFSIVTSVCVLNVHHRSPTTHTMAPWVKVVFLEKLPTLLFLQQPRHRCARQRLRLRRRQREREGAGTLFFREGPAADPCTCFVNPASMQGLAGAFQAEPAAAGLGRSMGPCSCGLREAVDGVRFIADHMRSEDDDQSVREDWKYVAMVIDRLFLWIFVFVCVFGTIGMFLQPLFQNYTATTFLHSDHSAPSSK

With “β2CFP nAChR subunit (from UniProt Q9ERK7 26-501) (receptor)” the mean NFRET for all pixels [1] was 0.2, the mean NFRET of first Gaussian component [2] was 0.19 and the mean NFRET of second Gaussian component [2] was 0.28.
